# Source: US20240132579A1 (DOTBIO PTE, published 2024)
# T1: biotinylated murine VEGF-164 (Acro Biosystem) (mouse, UniProt Q00731-2 27-190, biotinylated (site not stated))
# T1 construct: also called Mouse VEGF164; murine VEGFA
# T1 sequence (looked up): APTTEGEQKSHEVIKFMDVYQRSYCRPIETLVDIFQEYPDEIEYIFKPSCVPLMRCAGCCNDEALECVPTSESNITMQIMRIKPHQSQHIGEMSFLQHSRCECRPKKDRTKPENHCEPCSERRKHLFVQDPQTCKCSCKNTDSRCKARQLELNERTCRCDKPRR
# T2: Human VEGF-121 (Acro Biosystems) (human, UniProt P15692 207-395)
# T2 construct: Bought protein; also called human VEGFA
# T2 sequence: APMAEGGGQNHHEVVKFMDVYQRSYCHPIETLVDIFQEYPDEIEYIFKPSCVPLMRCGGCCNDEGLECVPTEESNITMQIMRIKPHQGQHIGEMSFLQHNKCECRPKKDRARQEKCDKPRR
# Assays:
# [1] = target: T3, Biotinylated human VEGF-165 (Acro Biosystem) (human, UniProt P15692 207-395, biotinylated (site not stated)); assay: BLI, biotinylated VEGF on streptavidin tips, 1:1 global fit
# T3 construct: Bought protein; also called human VEGFA
# Procedure: (§1) Binding characterization was performed using BLI (Satorius) at RT with a 1000 rpm flow-rate. Biotinylated human VEGF-165 (Acro Biosystem) was immobilized onto Streptavidin-coated tips at a concentration of 3 μg/mL for 60 sec in BLI buffer (0.1% BSA and 0.01% Tween-20 in PBS). After a 30 sec baseline, anti-VEGFA DotBodies were associated at 8 different concentrations, including a blank reference, in BLI buffer for 60 sec, followed by a 400 sec dissociation in BLI buffer. The background buffer signal was subtracted using the 0 nM concentration reference, and the kinetics of binding were calculated using a global fit following a 1:1 binding model, using BLI Analysis Software. The bivalent molecule 16A2.1×2 was also characterized as described here, but with a 600 sec dissociation. To characterize the binding of all the clones against murine VEGFA, the same procedure was employed, but the immobilized target was replaced with biotinylated murine VEGF-164 (Acro Biosystem).
# [2] = target: T1, biotinylated murine VEGF-164 (Acro …); assay: as above
# Procedure: as §1
# VEGFA = VEGFA (UniProt P15692-4 27-191, limits assumed); assay: method not stated
# [3] = target: T2, Human VEGF-121 (Acro Biosystems); assay: competitive ELISA: inhibition of 0.5 nM human VEGF-121 binding to coated VEGFR1 (FIG. 5)
# Procedure: (§2) To perform the competitive ELISA, the VEGFR1 was immobilized at a concentration of 2 μg/mL onto a Maxisorp 96-well plate (Thermo Scientific) overnight at 4° C., washed three times with PBS and blocked for 1 h at RT with ELISA Block Buffer (EBB: 0.2% BSA in PBST). […] The samples were incubated for 2 h at RT, and 50 μL transferred onto the VEGFR1-coated plate. After 2 h incubation, the plate was washed 3 times with PBST. 50 μL of streptavidin-HRP conjugate (Thermo Scientific) was added at a 1:5,000 dilution in EBB, and incubated for 1 h at RT. The plate was washed 5 times with PBST, and developed with 50 μL 3,3′,5,5′-Tetramethylbenzidine (TMB) substrate (GeneTex). After 5-15 min, the reactions were stopped by adding 50 μL of 2M H₂SO₄, and signal was measured at an absorbance of 450 nm.
# [4] = target: T2, Human VEGF-121 (Acro Biosystems); assay: competitive ELISA: inhibition of 0.5 nM human VEGF-121 binding to coated VEGFR1 (FIG. 4)
# Procedure: as §2
Kd [1] [nM],koff [1] [s⁻¹],kon [1] [M⁻¹ s⁻¹],Kd [2] [nM],koff [2] [s⁻¹],kon [2] [M⁻¹ s⁻¹],Kd (VEGFA) [nM],IC50 [3] [nM],IC50 [4] [nM],Binder
3,0.00032,106000,14.6,0.00173,118000,< 5,1.8,2.3,"anti-VEGFA DotBody 16C2.1 (VHH, Humanized, stabilized autonomous VH domain (single domain antibody, 'DotBody') derived from the trastuzumab VH) VHH: EVQLVESGGGLVQPGGSLRLSCAISGFSLAATDIDWVRQAPGKGLEWVARIFSPSDFTDYADSVKGRFTISADTSKNTVYLQMNSLRAEDTAVYYCGRPDTYAYNIFLDTPTYNALHYRGQGTLVTVSS"
3.37,0.000363,105000,15.3,0.00128,83600,–,12.8,–,anti-VEGFA DotBody 21A5.1 (VHH) VHH: EVQLVESGGGLVQPGGSLRLSCAISGFSLVETDIDWVRQAPGKGLEWVARIFLPSGSTYYADSVKGRFTISADTSKNTVYLQMNSLRAEDTAVYYCGSPDTYAYNIFLDTPAYKGLSYRGQGTLVTVSS
